Source: patent US20260001935

Tested on: aflibercept
Sequence (chain, as listed by the source): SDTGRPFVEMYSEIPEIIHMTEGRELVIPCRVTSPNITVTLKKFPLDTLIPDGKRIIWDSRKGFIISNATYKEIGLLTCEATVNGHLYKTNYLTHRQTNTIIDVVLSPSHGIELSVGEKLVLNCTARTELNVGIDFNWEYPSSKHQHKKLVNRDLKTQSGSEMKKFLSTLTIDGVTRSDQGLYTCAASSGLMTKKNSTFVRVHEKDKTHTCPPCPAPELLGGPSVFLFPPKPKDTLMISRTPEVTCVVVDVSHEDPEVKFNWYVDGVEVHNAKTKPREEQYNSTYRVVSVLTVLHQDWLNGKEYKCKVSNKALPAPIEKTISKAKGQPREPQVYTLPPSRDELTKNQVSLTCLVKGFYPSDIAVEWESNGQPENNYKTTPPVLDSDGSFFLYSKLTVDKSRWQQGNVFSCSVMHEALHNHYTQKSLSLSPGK

Chain of cathepsin D (Chinese hamster ovary host cell protein; recombinant CHO Cathepsin D with mmh tag) (chain, as listed by the source): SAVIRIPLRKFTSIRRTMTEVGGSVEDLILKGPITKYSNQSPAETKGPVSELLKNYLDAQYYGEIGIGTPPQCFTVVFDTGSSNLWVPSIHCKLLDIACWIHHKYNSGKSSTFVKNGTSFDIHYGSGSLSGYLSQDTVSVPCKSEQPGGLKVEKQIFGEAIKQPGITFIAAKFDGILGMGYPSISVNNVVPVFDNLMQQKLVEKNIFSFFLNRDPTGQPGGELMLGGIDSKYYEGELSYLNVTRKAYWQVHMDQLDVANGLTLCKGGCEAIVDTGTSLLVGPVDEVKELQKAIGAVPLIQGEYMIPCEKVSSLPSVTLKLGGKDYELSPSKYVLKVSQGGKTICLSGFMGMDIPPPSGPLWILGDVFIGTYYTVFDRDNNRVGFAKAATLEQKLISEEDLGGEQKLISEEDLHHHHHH

## cathepsin D (Chinese hamster ovary host cell protein; recombinant CHO Cathepsin D with mmh tag)
  NR-1 band formation, and Y/L cleavage: the results demonstrated a correlation between spiked-in cathepsin D and NR-1 band formation, and Y/L cleavage
